According to publication PMC12059597:

What was measured:
[1] = system: CD44 (predominantly standard isoform CD44s) on human TNBC cells (Homo sapiens (Cis-Pt-R, MDA-MB-231, BT-549 cells)), P16070-12; assay: flow cytometry cell binding; settings: apparent Kd on whole Cis-Pt-R cells; 2'-fluoro pyrimidines (2'F-Py) in the entire sequence; Flow cytometry: 150 nM Alexa 647-sTN58, serum-free medium, 0.1 mg/mL yeast tRNA, 0.1 mg/mL salmon sperm DNA, 10 min RT, after 30-fold excess unlabeled SCR …; cited from earlier work
CD44 (predominantly standard isoform CD44s) on human TNBC cells (Homo sapiens (Cis-Pt-R, MDA-MB-231, BT-549 cells)), P16070-12, sequence (P16070 other isoform, or with tags, fused parts or gaps): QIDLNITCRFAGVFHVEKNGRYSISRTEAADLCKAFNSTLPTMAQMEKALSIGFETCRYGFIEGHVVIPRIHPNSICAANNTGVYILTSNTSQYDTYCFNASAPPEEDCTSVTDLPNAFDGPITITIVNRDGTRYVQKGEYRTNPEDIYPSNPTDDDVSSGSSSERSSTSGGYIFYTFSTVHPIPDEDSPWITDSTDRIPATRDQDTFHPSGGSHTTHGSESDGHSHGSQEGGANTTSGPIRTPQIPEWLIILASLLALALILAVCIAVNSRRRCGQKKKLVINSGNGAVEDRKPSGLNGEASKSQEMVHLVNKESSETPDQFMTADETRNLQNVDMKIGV

[2] = system: CD44 (predominantly standard isoform CD44s) on human TNBC cells (Homo sapiens (Cis-Pt-R, MDA-MB-231, BT-549 cells)), P16070-12; assay: flow cytometry cell binding with siRNA knockdown; settings: 150 nM aptamer, 2'-fluoro pyrimidines (2'F-Py) in the entire sequence, Flow cytometry: 150 nM Alexa 647-sTN58, serum-free medium, 0.1 mg/mL yeast tRNA, 0.1 mg/mL salmon sperm DNA, 10 min RT, after 30-fold excess unlabeled SCR …, scale: % reduction of binding on CD44 knockdown vs siRNA ctrl

GGACAUAUGAUGCAACGUUGUGGUCCCGUUUGCACUUUGUUUACG [sTN58]
Kd [1]: 10 nM
binding signal [2]: 55
